From article PMC9712992

Target: D76N-β2-microglobulin (UniProt P61769)
UniProt P61769, sequence (P61769 other isoform, or with tags, fused parts or gaps D76N | D76N): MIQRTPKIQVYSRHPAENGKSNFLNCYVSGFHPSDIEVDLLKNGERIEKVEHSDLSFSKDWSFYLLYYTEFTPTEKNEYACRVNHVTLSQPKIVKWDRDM

For “crosslinked dimers (XL-Ds) of D76N-β2m/S57C (from UniProt P61769 21-119) (complex)”, the ThT fluorescence kinetics of seeded fibril growth of 20 μM D76N-β2m with 3% or 10% (w/w) fibril seeds and 10% (w/w) XL-Ds: fold increase in T (half) was 1.6 fold.
